To fix the notation:
T1: OsCYCOS2 aa 50-233 (Oryza sativa, UniProt A2YH60 50-233)
T1 construct: bait, Gal4 DBD fusion; also called PN20257; O. sativa Cyclin OsCYCOS2
T1 chain: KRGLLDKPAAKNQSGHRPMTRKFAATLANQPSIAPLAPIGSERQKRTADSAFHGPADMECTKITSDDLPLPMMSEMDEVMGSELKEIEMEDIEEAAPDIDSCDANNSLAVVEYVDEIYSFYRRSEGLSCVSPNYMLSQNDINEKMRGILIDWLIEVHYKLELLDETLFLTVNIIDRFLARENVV

T2: OsMADS6 aa 50-200 (Oryza sativa, UniProt Q6EU39 50-200)
T2 construct: bait, Gal4 DBD fusion; also called PN20233
T2 sequence: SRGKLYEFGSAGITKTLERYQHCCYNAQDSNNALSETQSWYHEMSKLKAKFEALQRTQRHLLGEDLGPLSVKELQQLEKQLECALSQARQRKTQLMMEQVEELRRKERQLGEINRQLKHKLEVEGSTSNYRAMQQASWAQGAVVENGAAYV

T3: OsS49462 aa 1-100 (Oryza sativa, UniProt Q01J96 179-278)
T3 construct: bait, Gal4 DBD fusion; also called PN20325; O. sativa Cyclin OsS49462, Fragment
T3 sequence: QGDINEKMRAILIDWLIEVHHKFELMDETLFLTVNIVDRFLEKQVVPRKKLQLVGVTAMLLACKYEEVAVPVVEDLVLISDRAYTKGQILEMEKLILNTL

B1: OsPN26539 aa 82-253 (other)
chain: GPGTRATGPDKGGRGLRQFSMKVCEKVESKGRTTYNEVADELVAEFADPNNNFASPDPDNPNTPQFDEKNIRRRVYDALNVLMAMDIISKDKKEIQWKGLPRTSMSDVEELKTEIIGLKGRIDKKNAYLQELEDQFVGLQNLAQRNEQLYGSGNAPSGGVALPFILVQTRPH
notes: prey, AD fusion
B2: OsPN26539 aa 66-346 (other)
chain: DDAPSSQPATSKKKKRGPGTRATGPDKGGRGLRQFSMKVCEKVESKGRTTYNEVADELVAEFADPNNNFASPDPDNPNTPQFDEKNIRRRVYDALNVLMAMDIISKDKKEIQWKGLPRTSMSDVEELKTEIIGLKGRIDKKNAYLQELEDQFVGLQNLAQRNEQLYGSGNAPSGGVALPFILVQTRPHATVEVEISEDMQLVHFDFNSTPFELHDDSFVLKALGFSGKEPDDTQAWVGNGGECSTTPIYHQSPQVARPNGVRLPTSPPIPGILKGRVKHEH
notes: prey, AD fusion; also called Novel Protein PN26539, Probable DP
B3: Os018989-4003 aa 9-179 (other)
chain: AAAASAAPGLANLLIREGAGLPSRPERYPPFRPCTSDSFAPISREGDDIPPQKKSVSLRSGGGGNAAEREEGGANRNGKKEKTGAQRITGWGLREFSKIVSKKVEAKGRTTYNEVADEIFAELKSITQNGLEFDEKNIRRRVYDAFNVLIAIRVIAKDKKEIKWMGLTNYR
notes: prey, AD fusion; also called PN21044; Hypothetical Protein 018989-4003, Similar to Triticum sp; DP Protein
B4: OsPN30852 aa 45-86 (other)
chain: RFEATTKSKLASLNEKLDILERKLEVLEVQVSSATTNPSVFN
modifications: not fully specified
notes: prey, AD fusion; also called Novel Protein PN30852
B5: Os018989-4003 aa 177-294 (other)
chain: NYRYEKIQKLEEVHKELITRIKNKKKLLQEIEKQFDDLQNITLRNQASQRPAESVNGILLPFLLIKTSRKARVEIEISEDSKFARFDFNGAPFTMHDDVSILEAIRRNKGRAGLSIHP
notes: prey, AD fusion; also called PN21044
B6: OsPN26539 aa 194-346 (other)
chain: TEIIGLKGRIDKKNAYLQELEDQFVGLQNLAQRNEQLYGSGNAPSGGVALPFILVQTRPHATVEVEISEDMQLVHFDFNSTPFELHDDSFVLKALGFSGKEPDDTQAWVGNGGECSTTPIYHQSPQVARPNGVRLPTSPPIPGILKGRVKHEH
notes: prey, AD fusion
B7: OsPN29958 aa 3-304 (other)
chain: QNEVSALEKQTLSLANDCLQSNKLRMEENALSTQVLKTNMRSSGDQNTVRTVKDMELQKLHGTIKALQKVVTDTAVLLDQERLDFNANLQEARKQIEVLKLKEILDDDLIEMNYEQMLKDIQLDLIQISSGNKTGSLGQANKTVAQANEKMLDSHGIVGASSSHVRNDLRPPQSESFERDNYKRPPSELMVVKELSIDKQELPRSITTEPHQEWKNKVIERLASDAQRLNALQSSIQELKTNTEASEGLELESVRYQIREAEGFITQLIDSNGKLSKKAEEFTSEDGLDGDNIDLRSRHQRK
notes: prey, AD fusion; also called Novel Protein PN29958, Fragment, centromere homologue
B8: OsPN29961 aa 10-215 (other)
chain: QKDGAPDEGSVGVPGRKTKETVTAADAIIDALDTAEEEVKRLDQHQEGQNNGNGTTFQPNVIMQGQSPSDYVLNVVSNVRPNDLEQALLSLPFSDALKIMSYLKEWSMVPLKVELVCRVCLVLLQTHHSQLTTTPSARSILTELKGILYSRVKECKDAIGFNLAAMDHIKELLAMRSDAPFRDARAKLMEIRQEQSRRSDRSDGAE
notes: prey, AD fusion; also called Novel Protein PN29961, Fragment, Similar to A. thaliana Unknown Protein BAB02349
B9: OsPN29966 aa 8-216 (other)
chain: GTISAVEQESARQIASKDAEIAFLNEKLHQFRNSGLSLSEGRDKLYEEIYNLRQQLVTLSKSLLNSEWGLSVSHYNNFEGAEDESKHRGNEKSSKDGITKENGSKGSNEDIFIDPTVLKHMDRDELVAHFNKMMNQMKRQHDSTLQEKTEEIFRLKRENLKKEGPNPWHLRNNKEFELMRKKIWEVITKLDEVLVENKRTIRIKSDVFP
notes: prey, AD fusion; also called Novel Protein PN29966, Fragment, myosin heavy chain
B10: PN23136 aa 66-191 (other)
chain: LRERIHKTRQHITQLVKDTSEKLKQASEADHRVEVSASKKIADAKLAKDFQAVLKEFQKAQRLAVEREAAYAPFISQAGLPQSYNSSEVNNGADKLAEQRTALLESRRQELVFLDNEIVFNEAVIE
notes: prey, AD fusion; also called Hypothetical Protein BAA85200 Similar to Syntaxin Related Protein AtVam3p
B11: OsPN29968 aa 12-113 (other)
chain: LVNNEDVVAIKQMQHLILGRLQDSNAVLTHFNEYSEQCFAEVSNDFAGKTRLLKSMKADLDHIFLKLRGMKSRLAATYPDAFPTGAMAETMDQRPDLESPLD
notes: prey, AD fusion; also called Novel Protein PN29968, Similar to A. thaliana Unknown Protein BAB01990
B12: OsPN29967 aa 16-174 (other)
chain: PPTRRALTLTLTLTLLLSLAMSEPASPPPAMPEDAAPPQPQPEPAVPAGEEAAPSLERKEELLPVEEKISELDESQSQLMGRLRGLKEDLLNWRSSLDTQVTKYKSELSDIKTALNSEIEQLRSDFQELRTTLKKQQEDVSNSLKNLGLQDATDNDGNK
notes: prey, AD fusion; also called Novel Protein PN29967, Fragment, unknown
B13: OsPN29882 aa 107-273 (other)
chain: ALMVERLEGSRQKLLMEIDSQSSEIEKLFEENSALSTSYQEAVAVTMQWENQVKDCLKQNEELRSHLEKLRLEQATLLKTSNTTIQPDGQNETSISFPPEFVTENLSLKDQLIKEQSRSEGLSAEIMKLSAELRKAVQAQNNLARLYRPVLRGIESNLMKMKQETYA
notes: prey, AD fusion; also called Novel Protein PN29882, Fragment, myosin heavy chain
B14: OsMADS18 aa 64-249 (other)
chain: EGILERYQRYSFDERAVLEPNTEDQENWGDEYGILKSKLDALQKSQRQLLGEQLDTLTTKELQQLEHQLEYSLKHIRSKKNQLLFESISELQKKEKSLKNQNNVLQKLMETEKEKNNAIINTNREEQNGATPSTSSPTPVTAPDPIPTTNNSQSQPRGSGESEAQPSPAQAGNSKLPPWMLRTSHT
notes: prey, AD fusion; also called PN20912
B15: OsMADS5 aa 61-171 (other)
chain: SCMYKTLERYRSCNYNLNSCEASAALETELSNYQEYLKLKTRVEFLQTTQRNLLGEDLVPLSLKELEQLENQIEISLMNIRSSKNQQLLDQVFELKRKEQQLQDANKDLKR
notes: prey, AD fusion; also called PN20770
B16: OsMADS7 aa 95-259 (other)
chain: RESEQLKASRNEYLKLKARVENLQRTQRNLLGPDLDSLGIKELESLEKQLDSSLKHVRTTRTKHLVDQLTELQRKEQMVSEANRCLRRKLEESNHVRGQQVWEQGCNLIGYERQPEVQQPLHGGNGFFHPLDAAGEPTLQIGYPAEHHEAMNSACMNTYMPPWLP
notes: prey, AD fusion; also called PN21116
B17: OsMADS15 aa 73-183 (other)
chain: YSYAEKALISAESESEGNWCHEYRKLKAKIETIQKCHKHLMGEDHESLNLKELQQLEQQLESSLKHIISRKSHLMLESISELQKKERSLQEENKALQKELVERQKNVRGQQ
notes: prey, AD fusion; also called PN20842
B18: OsPN29957 aa 28-214 (other)
chain: EVSFSIRVAKGRGIFEKLGRLAKPRVLALTVKQSTKGEAAKAFLRVLKYSSGAVLEPAKLYKLKHLTKVEVISNDPSGCTFVLGFDNLRSQSVAPPQWTMRNIDDRNRLLFSILTMCKEILSYLPKVVGIDFVELALWAKENTVTLDNQSSTQDGQEKSVTTQTERKVTVTVENDLGSQAKDEEEDM
notes: prey, AD fusion
B19: PN25358 aa 303-472 (other)
chain: VSASEFYSQSAIYVAAAHALKPNYSVYRSALRLVRSMLPLPYLKVGYLIAPPENSAIAPHKEWERSQFVLNHEELQQVNASDQPPSQSPGHVDSGRKLFRIVVADIVSVSACADLTLPPGAGLRIDTIHGPRFLVADNWETIDSWLDAIRLVYTIFARGRSDVLAGIITG
notes: prey, AD fusion; also called Hypothetical Protein AAK39589
B20: OsPN29957 aa 51-288 (other)
chain: PRVLALTVKQSTKGEAAKAFLRVLKYSSGAVLEPAKLYKLKHLTKVEVISNDPSGCTFVLGFDNLRSQSVAPPQWTMRNIDDRNRLLFSILTMCKEILSYLPKVVGIDFVELALWAKENTVTLDNQSSTQDGQEKSVTTQTERKVTVTVENDLGSQAKDEEEDMEALLDTYVMGIGEADAFSERLKQELVALEAANVYQLLQSEPLIDEVLQGLDAASATVDDMDEWLRIFNMKLRHM
notes: prey, AD fusion; also called Novel Protein PN29957, Fragment, unknown
B21: OsPN23484 aa 111-194 (other)
chain: GREDREREVQEELASLSDLAASYHSRLQSHGIDPDSFSDDGEEEQHDEEDGEEVEQIDTAALQTDGSSGGDSIGGMQVKAMVDD
notes: prey, AD fusion; also called Novel Protein PN23484, heavy meromyosin
B22: OsPN29942 aa 11-182 (other)
chain: VDTSNEIKEIVIDDMEPKVFQAGFLFMYRDNLVGDDELSASSSDCSIFDTLAGKLLAAADRYELPRLRLLCESYLCKHISVNSVATTLALADRHHAMELKSVCLKFAAENLSAVIRTDGFDYLKDNCPALQSEILRTVAGCEEECSSGGKSQSVWGQLSDGGDTSGRRVRPR
notes: prey, AD fusion; also called Novel Protein PN29942, Fragment, zinc finger protein

Ends that are not written are not given here.

The first experiment deals with T4, OsE2F1 aa 100-250 (Oryza sativa).
T4 construct: bait, Gal4 DBD fusion; also called PN19758; O. sativa E2F Homolog
T4 sequence (chain, as listed by the source): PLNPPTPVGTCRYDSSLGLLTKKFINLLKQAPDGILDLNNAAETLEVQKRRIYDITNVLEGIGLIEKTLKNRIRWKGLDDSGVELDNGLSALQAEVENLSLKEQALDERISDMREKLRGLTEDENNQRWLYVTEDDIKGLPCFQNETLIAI
The experiment is described as follows: Y2H; output trait library. An outline of the steps: (§1)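 Protein-protein interactions were detected in an automated, high-throughput yeast two-hybrid assay from Myriad Genetics Inc. (Salt Lake City, Utah), with a bait clone encoding a defined amino-acid fragment of a rice protein screened against the input trait or output trait rice prey library. Interacting proteins were identified by BLAST comparison of the encoding sequences of retrieved prey clones against databases.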
Consider B1, for which the binding result is “binds”.

As to B2, the binding result is “binds”.

As to B3, the binding result is “binds”.

As to B4, the binding result is given as “binds”.

B5: the binding result is reported as “binds”.

With B6, the binding result is recorded as “binds”.

Another experiment deals with T1, OsCYCOS2 aa 50-233. The experiment can be described thus: Y2H; output trait library. An outline of the steps: as §1
B7: the binding result is listed as “binds”.

On to B8, for which the binding result is “binds”.

B9: the binding result was “binds”.

Regarding B10, the binding result is “binds”.

B11: the binding result is “binds”.

Consider B12, for which the binding result was “binds”.

For B13, the binding result is recorded as “binds”.

The target in another experiment is T2, OsMADS6 aa 50-200. The experiment can be described thus: Y2H; output trait library. The gist of the method: as §1
B14: the binding result is on record as “binds”.

On to B15, for which the binding result is “binds”.

For B16, the binding result is “binds”.

Consider B17, for which the binding result is “binds”.

The next experiment deals with T3, OsS49462 aa 1-100. The experiment is described as follows: Y2H; output trait library. The gist of the method:
as §1
As to B18, the binding result is given as “binds”.

For B19, the binding result is recorded as “binds”.

As to B20, the binding result was “binds”.

For the molecule B21, the binding result is given as “binds”.

For the molecule B22, the binding result is recorded as “binds”.
